Data: article PMC3348928, “Ordered Self-Assembly Mechanism of a Spherical Oncoprotein Oligomer Triggered by Zinc Removal and Stabilized by an Intrinsically Disordered Domain” (PLoS ONE, 2012)

Columns and labels:
[1] = biological target: Recombinant E7 HPV-16 protein (human papillomavirus type 16 E7 oncoprotein) (human papillomavirus type 16) (UniProt P03129); assay: thioflavin T fluorescence kinetics; 10 mM sodium phosphate pH 7.0, 1 mM DTT, 20 µM ThT; triggered by 1.0 mM TPEN; 15 µM protein
[2] = biological target: Recombinant E7 HPV-16 protein (human papillomavirus type 16 E7 oncoprotein) (human papillomavirus type 16) (UniProt P03129); assay: thioflavin T fluorescence kinetics; 10 mM sodium phosphate pH 7.0, 1 mM DTT, 20 µM ThT; triggered by 1.0 mM EDTA; 15 µM protein (Figure 3)
[3] = biological target: Recombinant E7 HPV-16 protein (human papillomavirus type 16 E7 oncoprotein) (human papillomavirus type 16) (UniProt P03129); assay: thioflavin T fluorescence kinetics; ThT traces at different initial E7 concentrations after EDTA, analysed with the kinetically limited (KL) assembly model of Zlotnick; 10 mM sodium phosphate pH 7.0, 1 mM DTT, 20 µM ThT
[4] = biological target: E7 (Human papillomavirus type 16) (UniProt P03129); conditions: cited from earlier work
[5] = biological target: the molecule itself; assay: dynamic light scattering; 15 µM protein, 10 mM sodium phosphate pH 7.0, 1.0 mM DTT, 25°C; after addition of 1.0 mM EDTA (zinc removal); E7 at the plateau, E7C after 2 h and 24 h

Recombinant E7 HPV-16 protein (human papillomavirus type 16 E7 oncoprotein) (from UniProt P03129 1-98) (natural protein)
half-life of the slow oligomerization phase, TPEN [1]: < 6 min
half-life of the slow increase in ThT binding (oligomerisation phase) [2]: 10 min
half-life of the slow oligomerization phase, EDTA [2]: < 8 min
overall average time for each monomer added at 20 µM [3]: 28 s
z-nucleus size n (KL model) [3]: 1.2

E7 (from UniProt P03129)
Kd [4]: 1000 nM

B1: E7 HPV-16 C-terminal domain, spanning residues 40-98 (domain or fragment, human papillomavirus type 16, UniProt P03129 40-98, looked up)
chain: GPAGQAEPDRAHYNIVTFCCKCDSTLRLCVQSTHVDIRTLEDLLMGTLGIVCPICSQKP
notes: The introduction gives 58 amino acids for E7C, but residues 40-98 are 59; also called E7C; source: recombinant, expressed and purified as previously described [52]
binding result [5]: binds
